Measured values as given in the nanobody polyreactivity screen of Harvey et al. (2022).

Experiment: yeast display, Sf9 membrane polyspecificity reagent, FACS + sequencing; frameworks hold sequencing errors
How it was run: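 In a synthetic yeast display library (Saccharomyces cerevisiae BJ5465), nanobody expression was induced with galactose for 36–48 hours. FACS gates were set low and high (top ~1%) using anti-HA fluorescence for expression and streptavidin fluorescence for binding of the Sf9 membrane reagent. Each polyreactivity label is drawn from the gate of origin.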
In the case of “QVQLVESGGRLVKARGSLRISFADSVRTFIRNAMGWYRQAPGKERELVAAITSSGGSTYYADSVKGRFTISRDNAKITVYLQMNILKPEDTAVYYCAAVNSKRHRRYNYWGQGTQVTVSS”, the “polyreactivity (PSR sort gate)” value is reported as “high polyreactivity”.
For “QVQLVESGGRLVQAGGRLRLICAASGFIFSDYAMGWYRQAPGKERELVAAISWRGGSTYYADSVKGRFTISRDKEKNSVYLQMNSLKPEDTAVYYCAADYGAYDMDYWGQGTQVTVSS”, the “polyreactivity (PSR sort gate)” value was “high polyreactivity”.
In the case of “QVQLVESGGRLVQAGGRLRLSCAASGSIFMKNAMGWYRPAHGKERELVADITRSGDRTYYADSVKGRFTISRDNAKNTVYLQMNSLKPEDTAVYYCAKYYVWPRYGYSGQGTQVTVSS”, the “polyreactivity (PSR sort gate)” value is reported as “high polyreactivity”.
In the case of “QVQLVESGGRLVQAGGSHRLSCAASGRTFFHYAMGWYRQSPGKERELVAAITYRGTSTYYADSVKGRFTISRDNAKYTVYIQMNSLKPEDTAVYYCNAYSTRGGWSYRGDSWGQGTQVTVSS”, the “polyreactivity (PSR sort gate)” value is reported as “high polyreactivity”.
In the case of “QVQLVESGGRLVQAGGSLRISCDASGFIFVRNAMGWSRQAPGTEWELVAASTLCTGSTYYADSVKGRFTISRDNAKITVYLQMKSLKPEDTAVYYCNANKRIRPYRPGMDYWGHGTQVTVSS”, the “polyreactivity (PSR sort gate)” value is reported as “high polyreactivity”.
With “QVQLVESGGRLVQAGGSLRISSAASRFILFPYAMGWYRQAPGKERELVAAIRSDDTTNYADSVKGRFTISRDNAKNTVYLQMNSLKPEDTAVYYCATACYSWVSYDYWGQGTQVTVSS” the “polyreactivity (PSR sort gate)” value was “low polyreactivity”.
For “QVQLVESGGRLVQAGGSLRLICAASGSIFGHYAMGWYRQAPRKEREFVAAIDWSGGSSYYADSVKGRFTISRDNAKNTVYLQMISLKPEDTAVYYCAARVRERYYWGQGTQVTVSS”, the “polyreactivity (PSR sort gate)” value was “high polyreactivity”.
For “QVQLVESGGRLVQAGGSLRLRCAASGRTFVTNAMGWYRQAPGQERELVAAISGSGGSTYYADSVKGRFTISRDNAKNTFYLQMNSLKPEDTAVYDCATSYSLGYVRYGYWGQGSQVTVSS”, the “polyreactivity (PSR sort gate)” value was “high polyreactivity”.
In the case of “QVQLVESGGRLVQAGGSLRLRCAASGYIFVYNAKGWYRQAPGKARELVAAITDGGGSTYADSVKGRFTISRDNAKNTVYLQMNSLKPEDTAVYYCAARYSDTTWYVLYYYWVQGTQVTVSS”, the “polyreactivity (PSR sort gate)” value is reported as “low polyreactivity”.
For “QVQLVESGGRLVQAGGSLRLSCAASGFIFWSYAMGWYRQARGKERELVAAISWSGGRTYYADSVKGRFTISRDNAKNTVYLQMNSLKPEDTAVYYCAAVKRYSSQYPALDYWGQGTQVTVSS”, the “polyreactivity (PSR sort gate)” value was “high polyreactivity”.
For “QVQLVESGGRLVQAGGSLRLSCAASGFTFYGYAMGWYRQAPGKERELVAAISRGGGRTYYADSVKGRFTISRDNAKNTVYLQMNSLKPEDTAVYYCAAQGGSKTSSRSYGYWGQGTQVTVSS”, the “polyreactivity (PSR sort gate)” value was “high polyreactivity”.
With “QVQLVESGGRLVQAGGSLRLSCAASGFTIPHYAMGWYRQAPGKERELVAVISFSGGRTYYADSVKGRFTISRDNAKNTVYLQMNSLKPEDTAVYYCPAGFWDDYGKYYYWGQGTQVTVSS” the “polyreactivity (PSR sort gate)” value was “high polyreactivity”.
In the case of “QVQLVESGGRLVQAGGSLRLSCAASGFTYQGNAMGWYRQAPGKERVLVAAISRGGSTYYADSVKGRFTISRDNAKNTVYLQMNRLKPEDTAVYYGAAKPSVDLDYWGQGTQVTVSS”, the “polyreactivity (PSR sort gate)” value is reported as “high polyreactivity”.
For “QVQLVESGGRLVQAGGSLRLSCAASGIFYTYDMGRYRQAPGKERELVATINSGGSTNYADSVKGRFTISRDNAKNTVYLQMNSLKPEDTAVYYCAAAEDVYSERPRYDYWGQGTQVTVSS”, the “polyreactivity (PSR sort gate)” value was “low polyreactivity”.
With “QVQLVESGGRLVQAGGSLRLSCAASGITFYLYAMGWYRQAPGKERELVAAISSSGGSTYYADSVKGRFTISRDNEKNTVYLQMNSLKPEDTAVYYCAAVFYTSVTIYDYWGQGTQVTVSS” the “polyreactivity (PSR sort gate)” value was “high polyreactivity”.
With “QVQLVESGGRLVQAGGSLRLSCAASGNIFTVNAMGWYRQAPGKERELVAAISVGDGTTYYADSVKGRFTISRDNAKNTVYLQMNSLKPEDTAVYYCAAEGYTDYEYWGQGTQVTVSS” the “polyreactivity (PSR sort gate)” value was “high polyreactivity”.
For “QVQLVESGGRLVQAGGSLRLSCAASGNIFYYYAMGCYTQAHGKERELVAAISADCGRTYYADSVKGRFTISRDTAKNTVYLQMNSLQPEDTAVYYWNVLGRARTQTRYNYWGQGTQVTVSS”, the “polyreactivity (PSR sort gate)” value was “high polyreactivity”.
With “QVQLVESGGRLVQAGGSLRLSCAASGRIFLNYDMGWYRQAHGKERELVAAITWSTGSTYADSVKGRFTISRDNAKNNVYLKMNSLKPEVTAVYYCAAPWGQTDDRHKGGDYWGQGSQVTVSS” the “polyreactivity (PSR sort gate)” value was “low polyreactivity”.
For “QVQLVESGGRLVQAGGSLRLSCAASGRIFSPYAMGRYRPAPGKERELVAAITQSGGITSYADSVKGRFTISRDNAKNTVYLQMISLKPEDTAVYYCNKDVWDGYDWPEFDYWGQGTQVTVSS”, the “polyreactivity (PSR sort gate)” value was “low polyreactivity”.
For “QVQLVESGGRLVQAGGSLRLSCAASGRILPGNAMGWYRQAPGKEREFVAAISYSGGRTYYADSVKGRFTISRDNAKNNVYLQMNSLKPEDTAVYSCAARSYGSAYYYWGQGTQVTVSS”, the “polyreactivity (PSR sort gate)” value was “high polyreactivity”.
For “QVQLVESGGRLVQAGGSLRLSCAASGRTFFGYAMGWYRQAPGKEWELVAAISSGGRTYYADSVKGRFTISRDNAQNTVYLQMNSLKPEDTAVYSCAAQYSARYYYWGQGTQVTVSS”, the “polyreactivity (PSR sort gate)” value was “high polyreactivity”.
In the case of “QVQLVESGGRLVQAGGSLRLSCAASGRTFGPYAIGRYRQAPGKERELVAAITDTGSGTYYADSVKGRFTISRDNAKNTVYLQMNSLKPEDTAVYYCNAVRKYWGQGTQVTVSS”, the “polyreactivity (PSR sort gate)” value is reported as “low polyreactivity”.
With “QVQLVESGGRLVQAGGSLRLSCAASGRTFGSYAMGWFRQAPGKERELVATIRNSGGISYYADSVKGRFTISRDTAKNTVYLQMNSLKPEDTAVYDCAKLGRYGYDYWGQGTQVTVSS” the “polyreactivity (PSR sort gate)” value was “high polyreactivity”.
In the case of “QVQLVESGGRLVQAGGSLRLSCAASGRTFIKYAMGWYRQAPGKERELVAAISRNGGSTNYADSVKGRFTISRDNAKNTVYLQMNSLKPEDTAVYYCAAVGTVSRTVGYNYWGQGTQVTVSS”, the “polyreactivity (PSR sort gate)” value is reported as “high polyreactivity”.
In the case of “QVQLVESGGRLVQAGGSLRLSCAASGRTFRPYAMGWYRQAPGKERELVAAISSRGSSTYYADSVKGRFTISRDNAKNTVYLQMNSLKPEDTAVYYCAARSYWGGLRYDYWGQGTQVTVSS”, the “polyreactivity (PSR sort gate)” value is reported as “high polyreactivity”.
With “QVQLVESGGRLVQAGGSLRLSCAASGRTIVIYAMGWYRQAPGKEREFVAAISRSGGSTYYADSVKGRFTISRDNAKNTVYLQMNSLKPEDTAVYYCYTRTPYWFKSDYWGQGTQVTVSS” the “polyreactivity (PSR sort gate)” value was “low polyreactivity”.
In the case of “QVQLVESGGRLVQAGGSLRLSCAASGRTSGINAMGWYRQAPGKERELVAAISSGGRTYYADSVKGRFTISRDNAKNTVYLQMNSLKPEDTAVYYCAAVIHWSLYRRMEYWGQGTQVTVSS”, the “polyreactivity (PSR sort gate)” value is reported as “high polyreactivity”.
For “QVQLVESGGRLVQAGGSLRLSCAASGSIFGWYAMGWYRQAPGKESEFVASISVTAGSTYYADSVKWRFTISRDNAKNTVYLQMNSLKPEDTAVFYCAADDYTADAVQRFYYWGQGTQVTVSS”, the “polyreactivity (PSR sort gate)” value was “low polyreactivity”.
For “QVQLVESGGRLVQAGGSLRLSCAASGSIFRFNTMGWYRQAPGKERELVAVIRYRSGSTYYADTVKGRFTISRDNAKYTVYLQMNSLKPEDTAVYYCAAKRRSTYDYWGQGTQVTVSS”, the “polyreactivity (PSR sort gate)” value was “high polyreactivity”.
With “QVQLVESGGRLVQAGGSLRLSCAASGSIFTFYALGWYRQAPGKESELVAAISYRGGSTYYADSVRGRFTISRDNAKNTVYLQMNRLKPEDTAVYFCAAGRFPVFFQGYRMEYWGQGTQVTVSS” the “polyreactivity (PSR sort gate)” value was “low polyreactivity”.
In the case of “QVQLVESGGRLVQAGGSLRLSCAASGSNLLWNTMGWYRQAPGKERELVAGITSGGNTYYADSVKGRFTISRDNAKNTVYLKMNSLKPEDTAVYYCSYYYWGQGTQVTVSS”, the “polyreactivity (PSR sort gate)” value is reported as “low polyreactivity”.
In the case of “QVQLVESGGRLVQAGGSLRLSCAASGSTFAANAMGRYRQDPGKDRELVAGITSSGGSTYYADSVKGRFTISRDNAKNTDYLQLTSLKPEDNAVYYCNKDNARYVRMYDSWGQGTQVTVSS”, the “polyreactivity (PSR sort gate)” value is reported as “low polyreactivity”.
In the case of “QVQLVESGGRLVQAGGSLRLSCAASGSTFQFNVMGWYRQAPGKERELVAAITSGASTYYADSVKGRFTISRDNAKNTVYLQMNSLEPEDTAVYYCAVDYSFRYDYVQRYYYWGQGTQVTVSS”, the “polyreactivity (PSR sort gate)” value is reported as “high polyreactivity”.
For “QVQLVESGGRLVQAGGSLRLSCAASGSTFRKYAMGWYIQAPGKERELVASISRGGTTYYADSVKGRFTISRDNAKNTVYLQMNSLKPEDTAVYYCNKASYRWYWGYLDYYYWGQGTQVTVSS”, the “polyreactivity (PSR sort gate)” value was “high polyreactivity”.
With “QVQLVESGGRLVQAGGSLRLSCAASGSTFTRYVMGWYRQAPGKERELVAVISSSGGSTYYADSVKGRFTISRDNAKNTVYLQMNSLKPEDTAVYYCAARYSAKHYGYGYWGQGTQVTVSS” the “polyreactivity (PSR sort gate)” value was “high polyreactivity”.
For “QVQLVESGGRLVQAGGSLRLSCAASGSTIPYYTMGWYRQAPGKERELVAAIRYSGSSTYYADSVKGRFTISRDNAKNTVYLQMNSLKPEDTAVYYCAKTLWRRRGDRRYRVIEMDHWGQGTQVTVSS”, the “polyreactivity (PSR sort gate)” value was “low polyreactivity”.
With “QVQLVESGGRLVQAGGSLRLSCAASGTFAVYTMGWYRQAPGKERELVAAISSGGSTYYADSVKGRFTISRDNAKNTVYLQMNSLKPEDTAVYYCNKPLSYGYDYWGQGTQVTVSS” the “polyreactivity (PSR sort gate)” value was “high polyreactivity”.
For “QVQLVESGGRLVQAGGSLRLSCAASGYTFQRYAMGWYRQAPGKERELVAAISSSGGSTYYADSVKGRFTISRDNAKNTVYLQMNSLKPEDTAVFYCAVRFVSAWSRYDYWGQGTQVTVSS”, the “polyreactivity (PSR sort gate)” value was “high polyreactivity”.
For “QVQLVESGGRLVQAGGSLRLSCAASVSTFRKYAMGWYRQAPGKEREFVAAITWSTGTTYYADSVKGRFTISRDTAKNTVYLQMNSLKPEDTAVYYCAADSQPPHELYESIEHESWGQGTQVTVSS”, the “polyreactivity (PSR sort gate)” value was “low polyreactivity”.
For “QVQLVESGGRLVQAGGSLRLSCADSGSIFEYYAMGWYRQAPGKEREFVAAISDNGDSTYYADSVKGRFTISRDNAKNTVYLQMNSLKPEDTEVYYCNKTPVDDPPWCYDSWGQGTQVTVSS”, the “polyreactivity (PSR sort gate)” value was “low polyreactivity”.
With “QVQLVESGGRLVQAGGSLRLSCAPSGFIFRFNAMGWYRQPPGKVSELVARIDWSGGSTYYADSVKGRFTISRENAKYTVYFQMNSLKPEDTAVYYCAAERYFEYSECDYWGQGTQVTVSS” the “polyreactivity (PSR sort gate)” value was “low polyreactivity”.
In the case of “QVQLVESGGRLVQAGGSLRLSGAASGFTFGRNAKGWYRPAPGKERELVASIDWSGGSTYYADSVKGRFTISRDNAKNTFFLQMNSLKPEETAVYYCAVGPNSVGNRSYGFDYWGQGTQVTVSS”, the “polyreactivity (PSR sort gate)” value is reported as “low polyreactivity”.
In the case of “QVQLVESGGRLVQAGGSLRLSGADSGSIFSSYAMGWNRPAPGKERELVAAISSSGDSTYADSEKGRFTISRDNAKNSVDLQMNSLKPEDTAVYYCAVGGAGSDDYWGQGTQVTVSS”, the “polyreactivity (PSR sort gate)” value is reported as “low polyreactivity”.
